Source: IntAct's records for PubMed 21447556

B1: Protein piwi (Drosophila melanogaster (Fruit fly)), Q9VKM1 (parent)
chain: MADDQGRGRRRPLNEDDSSTSRGSGDGPRVKVFRGSSSGDPRADPRIEASRERRALEEAPRREGGPTERKPWGDQYDYLNTRPAELVSKKGTDGVPVMLQTNFFRLKTKPEWRIVHYHVEFEPSIENPRVRMGVLSNHANLLGSGYLFDGLQLFTTRKFEQEITVLSGKSKLDIEYKISIKFVGFISCAEPRFLQVLNLILRRSMKGLNLELVGRNLFDPRAKIEIREFKMELWPGYETSIRQHEKDILLGTEITHKVMRTETIYDIMRRCSHNPARHQDEVRVNVLDLIVLTDYNNRTYRINDVDFGQTPKSTFSCKGRDISFVEYYLTKYNIRIRDHNQPLLISKNRDKALKTNASELVVLIPELCRVTGLNAEMRSNFQLMRAMSSYTRMNPKQRTDRLRAFNHRLQNTPESVKVLRDWNMELDKNVTEVQGRIIGQQNIVFHNGKVPAGENADWQRHFRDQRMLTTPSDGLDRWAVIAPQRNSHELRTLLDSLYRAASGMGLRIRSPQEFIIYDDRTGTYVRAMDDCVRSDPKLILCLVPNDNAERYSSIKKRGYVDRAVPTQVVTLKTTKNRSLMSIATKIAIQLNCKLGYTPWMIELPLSGLMTIGFDIAKSTRDRKRAYGALIASMDLQQNSTYFSTVTECSAFDVLANTLWPMIAKALRQYQHEHRKLPSRIVFYRDGVSSGSLKQLFEFEVKDIIEKLKTEYARVQLSPPQLAYIVVTRSMNTRFFLNGQNPPPGTIVDDVITLPERYDFYLVSQQVRQGTVSPTSYNVLYSSMGLSPEKMQKLTYKMCHLYYNWSGTTRVPAVCQYAKKLATLVGTNLHSIPQNALEKKFYYL
partner: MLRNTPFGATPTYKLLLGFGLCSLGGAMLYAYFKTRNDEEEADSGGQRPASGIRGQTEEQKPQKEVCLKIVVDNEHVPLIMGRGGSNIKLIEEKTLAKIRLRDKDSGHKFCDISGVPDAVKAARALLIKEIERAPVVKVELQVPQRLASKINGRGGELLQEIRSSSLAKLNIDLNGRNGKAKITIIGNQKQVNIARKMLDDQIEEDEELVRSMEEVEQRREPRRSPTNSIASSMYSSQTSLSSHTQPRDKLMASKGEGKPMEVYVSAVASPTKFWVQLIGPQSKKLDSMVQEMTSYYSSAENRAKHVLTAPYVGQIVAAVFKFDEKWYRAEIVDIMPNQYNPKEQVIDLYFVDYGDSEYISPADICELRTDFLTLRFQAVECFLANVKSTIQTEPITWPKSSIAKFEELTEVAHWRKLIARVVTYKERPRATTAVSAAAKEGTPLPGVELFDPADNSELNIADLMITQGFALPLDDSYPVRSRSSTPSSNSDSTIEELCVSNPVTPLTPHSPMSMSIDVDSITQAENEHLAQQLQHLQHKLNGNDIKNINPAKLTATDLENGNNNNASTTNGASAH
B2: Protein argonaute-3 (Drosophila melanogaster (Fruit fly)), Q7PLK0 (parent)
chain: MSGRGNLLSLFNKNAGNMGKSISSKDHEIDSGLDFNNSESSGERLLSSHNIETDLITTLQHVNISVGRGRARLIDTLKTDDHTSNQFITSESKENITKKTKGPESEAIASENGLFFPDLIYGSKGSSVNIYCNYLKLTTDESKGVFNYEVRFFPPIDSVHLRIKYLNDHKDKLGGTKTFDGNTLYLPILLPNKMTVFISKAEDVELQIRILYKKKEEMRNCTQLYNILFDRVMKVLNYVKFDRKQFDPSRPKIIPLAKLEVWPGYVTAVDEYKGGLMLCCDVSHRILCQKTVLEMLVDLYQQNVEHYQESARKMLVGNIVLTRYNNRTYKINDICFDQNPTCQFEIKTGCTSYVEYYKQYHNINIKDVNQPLIYSIKKSRGIPAERENLQFCLIPELCYLTGLRDEVRSDNKLMREIATFTRVSPNQRQMALNKFYENVSNTPAAQEILNSWGLSLTNNSNKISGRQMDIEQIYFSKISVSAGRSAEFSKHAVTNEMLKVVHLSKWIIIHLRNYRQAATSLLDNMKQACESLGMNISNPTMISLDHDRIDAYIQALRRNITMNTQMVVCICHNRRDDRYAAIKKICCSEIPIPSQVINAKTLQNDLKIRSVVQKIVLQMNCKLGGSLWTVKIPFKNVMICGIDSYHDPSNRGNSVAAFVASINSSYSQWYSKAVVQTKREEIVNGLSASFEIALKMYRKRNGKLPTNIIIYRDGIGDGQLYTCLNYEIPQFEMVCGNRIKISYIVVQKRINTRIFSGSGIHLENPLPGTVVDQHITKSNMYDFFLVSQLVRQGTVTPTHYVVLRDDCNYGPDIIQKLSYKLCFLYYNWAGTVRIPACCMYAHKLAYLIGQSIQRDVAEALSEKLFYL
partner: B1 partner

Variants of: B1
Details: with tdrkh_drome papi

Variant	effect of a mutation on the interaction
R7K;R9K	disrupting interaction strength

Variants of: B2
Details: with tdrkh_drome papi

Variant	effect of a mutation on the interaction
R68K;R70K;R72K	disrupting interaction strength
